Results published in patent US20200270347A1 (Hoffmann-La Roche, published 2020).

How the values were obtained:
EGFRvIII-ECD avi his [1] = molecular target: T1, EGFRvIII-ECD avi his (human); test: SPR, ECD antigen captured with anti-His, single injection of antibody at 500 nM
T1 construct: Extracellular domain of human EGFRvIII fused to an Avi-tag and a His-tag at the C-terminus; the entry is the whole construct; also called recombinant EGFRvIII; EGFRvIII antigen

[2] = molecular target: EGFRwt ECD antigen (His-tagged, captured with anti-His) (human, UniProt P00533 25-645); test: as above
EGFRvIII-ECD avi his [3] = molecular target: T1, EGFRvIII-ECD avi his; test: SPR, PGLALA IgG captured with anti-PGLALA antibody, EGFRvIII-ECD avi his as analyte, 1:1 Langmuir, 25° C.
[4] = molecular target: T2, wild-type EGFR on MKN-45 cells (human, UniProt P00533 25-1210); test: flow cytometry on MKN-45 cells (wild-type EGFR), IgG PGLALA
T2 construct: MKN-45 is the wild-type EGFR line used to exclude crossreactivity; also called EGFRwt

[5] = molecular target: T3, EGFRvIII expressed on the cell surface (CHO-EGFRvIII, DK-MG, U87MG-EGFRvIII cells) (human, UniProt P00533 298-1210); test: flow cytometry on U87MG-EGFRvIII cells, IgG PGLALA
T3 construct: The cell line of each result is named under assay; Species is stated for the U87 transfectant (human EGFRvIII protein) and the entry; also called EGFRvIII positive cells

[6] = molecular target: T4, recombinant TYRP1 (Sino Biologicals) (human, UniProt P17643 25-477, limits assumed); test: SPR, relative active concentration as for CD3, with recombinant TYRP1 (Sino Biologicals) as antigen; sample: 14d pH 7.4, 37°C
T4 construct: Bought protein; also called human TYRP1

[7] = molecular target: T4, recombinant TYRP1 (Sino Biologicals); test: SPR, relative active concentration as for CD3, with recombinant TYRP1 (Sino Biologicals) as antigen; sample: unstressed
[8] = molecular target: T4, recombinant TYRP1 (Sino Biologicals); test: SPR, relative active concentration as for CD3, with recombinant TYRP1 (Sino Biologicals) as antigen; sample: 14d pH 6.0, 40°C
[9] = molecular target: Cynomolgus TYRP1 ECD-Fc(knob)-Avi / Fc(hole) (cynomolgus, UniProt P01857 104-328 = IgG part); test: SPR, TYRP1 ECD-Fc captured with anti-PGLALA antibody, Fab as analyte, 1:1 Langmuir; cynomolgus TYRP1
[10] = molecular target: T5, Human TYRP1 ECD-Fc(knob)-Avi / Fc(hole) (human, UniProt P01857 104-328 = IgG part); test: SPR, TYRP1 ECD-Fc captured with anti-PGLALA antibody, Fab as analyte, 1:1 Langmuir; human TYRP1
T5 construct: Fc with knob-into-hole and PG LALA modifications, C-terminal Avi-tag; also called monomeric fusion of the human TYRP1 extracellular domain to a human Fc-domain

[11] = molecular target: Mouse TYRP1 ECD-Fc(knob)-Avi / Fc(hole) (mouse, UniProt P01857 104-328 = IgG part); test: SPR, TYRP1 ECD-Fc captured with anti-PGLALA antibody, Fab as analyte, 1:1 Langmuir; mouse TYRP1
[12] = molecular target: TYRP1 on the melanoma cell line M150543 (human, UniProt P17643 25-537); test: cell-based or functional assay
[13] = molecular target: T6, heterodimer of human CD3 delta and CD3 epsilon ectodomains fused to a human Fc domain with knob-into-hole … (human); test: SPR, relative active concentration after stress
T6 construct: Each entry is the whole fusion chain (ectodomain, stalk, Fc, Avi-tag); also called recombinant CD3; recombinant human CD3

[14] = molecular target: T6, heterodimer of human CD3 delta and CD3 …; test: SPR, TCB captured with anti-PGLALA antibody, CD3 antigen as analyte, 1:1 Langmuir
[15] = molecular target: T7, heterodimer of cynomolgus CD3 delta and CD3 epsilon ectodomains fused to a human Fc domain with … (cynomolgus); test: as above
T7 construct: Each entry is the whole fusion chain; also called Cynomolgus CD3 epsilon stalk-Fc(knob)-Avi / Cynomolgus CD3 delta stalk-Fc(hole)-Avi

[16] = molecular target: T8, human CD3 expressed on Jurkat NFAT reporter cells (human, UniProt P07766 23-207); test: flow cytometry on Jurkat NFAT cells, PE-labelled anti-human Fc secondary antibody
T8 construct: CD3 complex on cells; also called CD3 on Jurkat cells; CD3 expressing cells
T8 sequence (P07766 23-207 limits assumed): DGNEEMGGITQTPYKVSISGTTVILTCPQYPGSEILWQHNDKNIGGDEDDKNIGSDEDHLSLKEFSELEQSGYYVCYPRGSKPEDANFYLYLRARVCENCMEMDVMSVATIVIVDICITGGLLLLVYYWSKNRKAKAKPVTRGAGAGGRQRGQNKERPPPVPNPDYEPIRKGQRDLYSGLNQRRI

| Binder | response units (EGFRvIII-ECD avi his [1]) | response units [2] | Kd (EGFRvIII-ECD avi his [3]) | Tyrp1 Binding Activity (%) [6] | Tyrp1 Binding Activity (%) [7] | Tyrp1 Binding Activity (%) [8] | other results |
| --- | --- | --- | --- | --- | --- | --- | --- |
| EGFRvIII antibody P063.056 IgG1 PGLALA (antibody, V domains shown, Anti-EGFRvIII PGLALA IgG (human IgG1)) VH: EVQLVQSGAEVKKPGESLKISCKGSGYSFDSYWIAWVRQMPGKGLEWMGVIHPYDSDTRYSPSFQGQVTISADKSISTAYLQWSSLKASDTAMYYCARVSRSSYAFDYWGQGTLVTVSS VL: not shown | > 50 RU | < 5 RU | 10 nM |  |  |  | binding result [4]: no binding (tested: about 140 nM) |
| EGFRvIII antibody P064.078 IgG1 PGLALA (antibody, V domains shown, Anti-EGFRvIII PGLALA IgG (human IgG1)) VH: EVQLVQSGAEVKKPGESLKISCKGSGYSFDSYWIAWVRQMPGKGLEWMGVIHPYDSDTRYSPSFQGQVTISADKSISTAYLQWSSLKASDTAMYYCARVSRLSYALDYWGQGTLVTVSS VL: not shown | > 50 RU | > 5 RU | 15 nM |  |  |  | EC50 (read off the curve) [5]: ~3 nM |
| EGFRvIII antibody P065.036 IgG1 PGLALA (antibody, V domains shown, Anti-EGFRvIII PGLALA IgG (human IgG1)) VH: EVQLVQSGAEVKKPGESLKISCKGSGYSFDSYWIAWVRQMPGKGLEWMGVIHPYDSDTRYSPSFQGQVTISADKSISTAYLQWSSLKASDTAMYYCARVSRSSYALDYWGQGTLVTVSS VL: not shown | > 50 RU | > 5 RU | 10 nM |  |  |  |  |
| TYRP1 IgG (antibody, V domains shown, IgG format; constant regions not specified) VH: QVQLVQSGAEVKKPGASVKVSCKASGFNIKDYFLHWVRQAPGQGLEWMGWINPDNGNTVYAQKFQGRVTMTADTSTSTVYMELSSLRSEDTAVYYCTRRDYTYEKAALDYWGQGTLVTVSS VL: DIQMTQSPSSLSASVGDRVTITCRASGNIYNYLAWYQQKPGKVPKLLIYDAKTLADGVPSRFSGSGSGTDFTLTISSLQPEDVATYYCQHFWSLPFTFGQGTKLEIK |  |  |  | 101% | 100% | 97% |  |
| TYRP1 Fab fragment (humanized TA99 TYRP1 binder) (Fab, V domains shown, Fab prepared by plasmin digestion of the corresponding antibody; also called TYRP1 Fab fragments) VH: QVQLVQSGAEVKKPGASVKVSCKASGFNIKDYFLHWVRQAPGQGLEWMGWINPDNGNTVYAQKFQGRVTMTADTSTSTVYMELSSLRSEDTAVYYCTRRDYTYEKAALDYWGQGTLVTVSS VL: DIQMTQSPSSLSASVGDRVTITCRASGNIYNYLAWYQQKPGKVPKLLIYDAKTLADGVPSRFSGSGSGTDFTLTISSLQPEDVATYYCQHFWSLPFTFGQGTKLEIK |  |  |  |  |  |  | Kd [9]: 0.18 nM; Kd [10]: 0.13 nM; Kd [11]: 0.53 nM |
| TYRP1 TCB CD3opt (bispecific antibody, human IgG1, kappa, L234A L235A, two TYRP1 Fabs, one CD3opt crossover Fab) heavy 1: not shown heavy 2: QVQLVQSGAEVKKPGASVKVSCKASGFNIKDYFLHWVRQAPGQGLEWMGWINPDNGNTVYAQKFQGRVTMTADTSTSTVYMELSSLRSEDTAVYYCTRRDYTYEKAALDYWGQGTLVTVSSASTKGPSVFPLAPSSKSTSGGTAALGCLVEDYFPEPVTVSWNSGALTSGVHTFPAVLQSSGLYSLSSVVTVPSSSLGTQTYICNVNHKPSNTKVDEKVEPKSCDKTHTCPPCPAPEAAGGPSVFLFPPKPKDTLMISRTPEVTCVVVDVSHEDPEVKFNWYVDGVEVHNAKTKPREEQYNSTYRVVSVLTVLHQDWLNGKEYKCKVSNKALGAPIEKTISKAKGQPREPQVCTLPPSRDELTKNQVSLSCAVKGFYPSDIAVEWESNGQPENNYKTTPPVLDSDGSFFLVSKLTVDKSRWQQGNVFSCSVMHEALHNHYTQKSLSLSP light 1: DIQMTQSPSSLSASVGDRVTITCRASGNIYNYLAWYQQKPGKVPKLLIYDAKTLADGVPSRFSGSGSGTDFTLTISSLQPEDVATYYCQHFWSLPFTFGQGTKLEIKRTVAAPSVFIFPPSDRKLKSGTASVVCLLNNFYPREAKVQWKVDNALQSGNSQESVTEQDSKDSTYSLSSTLTLSKADYEKHKVYACEVTHQGLSSPVTKSFNRGEC light 2: EVQLLESGGGLVQPGGSLRLSCAASGFQFSSYAMNWVRQAPGKGLEWVSRIRSKYNNYATYYADSVKGRFTISRDDSKNTLYLQMNSLRAEDTAVYYCVRHTTFPSSYVSYYGYWGQGTLVTVSSASVAAPSVFIFPPSDEQLKSGTASVVCLLNNFYPREAKVQWKVDNALQSGNSQESVTEQDSKDSTYSLSSTLTLSKADYEKHKVYACEVTHQGLSSPVTKSFNRGEC |  |  |  | 101% | 100% | 101% | EC50 of tumor cell killing at 48 h (LDH release), PBMC donor 1 [12]: 0.31 nM; EC50 of tumor cell killing at 48 h (LDH release), PBMC donor 2 [12]: 0.03 nM; EC50 of tumor cell killing at 48 h (LDH release), PBMC donor 3 [12]: 0.08 nM; binding activity to CD3 after 2 weeks at pH 7.4, 37° C., relative to 2 weeks at pH 6, -80° C. [13]: > 90%; Kd [14]: 50 nM; Kd [15]: 20 nM |
| TYRP1 TCB CD3orig (bispecific antibody, human IgG1, kappa, L234A L235A, 2+1 IgG CrossFab, inverted, with charge modifications) heavy 1: not shown heavy 2: QVQLVQSGAEVKKPGASVKVSCKASGFNIKDYFLHWVRQAPGQGLEWMGWINPDNGNTVYAQKFQGRVTMTADTSTSTVYMELSSLRSEDTAVYYCTRRDYTYEKAALDYWGQGTLVTVSSASTKGPSVFPLAPSSKSTSGGTAALGCLVEDYFPEPVTVSWNSGALTSGVHTFPAVLQSSGLYSLSSVVTVPSSSLGTQTYICNVNHKPSNTKVDEKVEPKSCDKTHTCPPCPAPEAAGGPSVFLFPPKPKDTLMISRTPEVTCVVVDVSHEDPEVKFNWYVDGVEVHNAKTKPREEQYNSTYRVVSVLTVLHQDWLNGKEYKCKVSNKALGAPIEKTISKAKGQPREPQVCTLPPSRDELTKNQVSLSCAVKGFYPSDIAVEWESNGQPENNYKTTPPVLDSDGSFFLVSKLTVDKSRWQQGNVFSCSVMHEALHNHYTQKSLSLSP light 1: DIQMTQSPSSLSASVGDRVTITCRASGNIYNYLAWYQQKPGKVPKLLIYDAKTLADGVPSRFSGSGSGTDFTLTISSLQPEDVATYYCQHFWSLPFTFGQGTKLEIKRTVAAPSVFIFPPSDRKLKSGTASVVCLLNNFYPREAKVQWKVDNALQSGNSQESVTEQDSKDSTYSLSSTLTLSKADYEKHKVYACEVTHQGLSSPVTKSFNRGEC light 2: EVQLLESGGGLVQPGGSLRLSCAASGFTFSTYAMNWVRQAPGKGLEWVSRIRSKYNNYATYYADSVKGRFTISRDDSKNTLYLQMNSLRAEDTAVYYCVRHGNFGNSYVSWFAYWGQGTLVTVSSASVAAPSVFIFPPSDEQLKSGTASVVCLLNNFYPREAKVQWKVDNALQSGNSQESVTEQDSKDSTYSLSSTLTLSKADYEKHKVYACEVTHQGLSSPVTKSFNRGEC |  |  |  | 103% | 100% | 98% | EC50 of tumor cell killing at 48 h (LDH release), PBMC donor 1 [12]: 0.44 nM; EC50 of tumor cell killing at 48 h (LDH release), PBMC donor 2 [12]: 0.05 nM; EC50 of tumor cell killing at 48 h (LDH release), PBMC donor 3 [12]: 0.14 nM; Kd [14]: 50 nM |
| CD3opt human IgG1 PGLALA (antibody, V domains shown, Human IgG1 format with P329G L234A L235A (PGLALA); also called CD3opt IgG PGLALA) VH: EVQLLESGGGLVQPGGSLRLSCAASGFQFSSYAMNWVRQAPGKGLEWVSRIRSKYNNYATYYADSVKGRFTISRDDSKNTLYLQMNSLRAEDTAVYYCVRHTTFPSSYVSYYGYWGQGTLVTVSS VL: QAVVTQEPSLTVSPGGTVTLTCGSSTGAVTTSNYANWVQEKPGQAFRGLIGGTNKRAPGTPARFSGSLLGGKAALTLSGAQPEDEAEYYCALWYSNLWVFGGGTKLTVLR |  |  |  |  |  |  | binding activity to CD3 after 2 weeks at pH 7.4, 37° C., relative to 2 weeks at pH 6, -80° C. [13]: > 90%; EC50 (read off the curve) [16]: ~0.5 nM |
| CD3orig human IgG1 PGLALA (antibody, V domains shown, Human IgG1 format with P329G L234A L235A (PGLALA) in the Fc by the text; also called CD3orig IgG PGLALA) VH: not shown VL: QAVVTQEPSLTVSPGGTVTLTCGSSTGAVTTSNYANWVQEKPGQAFRGLIGGTNKRAPGTPARFSGSLLGGKAALTLSGAQPEDEAEYYCALWYSNLWVFGGGTKLTVLR |  |  |  |  |  |  | EC50 (read off the curve) [16]: ~0.8 nM |
